Reference: patent US20260241035A1, “FUNCTIONAL NUCLEIC ACID MOLECULE AND METHOD” (THE UNIVERSITY COURT OF THE UNIVERSITY OF EDINBURGH, priority 2022, published 2026)

The molecules below were run on GSC7 cells (assay: Nano-Glo Dual-Luciferase Reporter (Nanoglo DLR) assay of enhancer activity, fold change to mCMV). Details: expression fold change of the individual enhancer compared to mCMV.
Assay type: cell-based, human
Source text: We chose an arrayed library format, with 160 bp enhancer fragments individually cloned into separate plasmids and arrayed in 96 well plates. These 160 bp were synthesized as a single pool of oligos, then randomly cloned into the plasmid and isolated. 20 bp×2 were needed for PCR amplification of the pool and so a library of 200 bp fragments was synthesized (Twist Biosciences). To meet our oligo synthesis strategy, ChIP-seq peaks expressed by GSCs were merged into a single oligo. This oligonucleotide pool was PCR-amplified (using limited cycles to reduce bias and ‘jackpot’ products meaning products which are easier to amplify will overtake the oligonucleotide pool) and cloned into the expression vector by an efficient Golden Gate reaction. 4579 individual plasmids were then randomly picked, isolated and plated as an arrayed plasmid DNA library on 96 well plates (×48). The bacterial colony picking and production of plasmid minipreps were supported by the Edinburgh Genome Foundry (S. Rosser). This library was then screened using the optimised Nanoglo DLR assay (Nano-Glo Dual-Luciferase Reporter Assay, Promega) in 384 well format. Each plate was transiently transfected together with PGK-FFLuc in a 1:10 ratio into GSC7 cells. 2 days later a Nanoglo DLR assay was performed and assayed on a plate reader.
Cells were seeded in 384 well plates using a multidrop and transfected the following day using the CyBio Felix. Two days later the experiment was terminated with a Nanoglo DLR assay and all hits with a fold change to mCMV greater than 10 were Sanger sequenced and mapped back to the genome.
Cells were seeded at the required density. The following day the transfection was carried out. For this the Plus reagent and Lipofectamine LTX (Life Technologies, 15338030) were each diluted in half the volume of Opti-MEM I Reduced-Serum Medium (further referred to as Optimem) (Life Technologies, 31985062). Following this step, the Plus reagent/Optimem premix was added to all DNA samples followed by the Lipofectamine LTX/Optimem premix. The transfection mix was incubated for 5 min at room temperature and then carefully dropped on the cells. Generally, no media change was carried out. Cells were analysed two days following transfection.
This assay consists of two steps. The transfection was carried out using a normalisation plasmid PGK-Firefly-Luciferase (Promega, E5011) that was transfected in a 1/10 ratio with the plasmid of interest. First, the Firefly Luciferase activity is measured which allows to normalise to transfection efficiency. In a second step, the activity of Nanoluc is determined which is the readout of the plasmid of interest. Cells were washed 3× with PBS and 20 μl was left in the 96 well plate after the final wash (25 μl in 384 well). Oneglo buffer was added and the plate was shaken for 5 min at 480 rpm to allow cell lysis. 20 μl cell lysate in 96 well format or 25 μl cell lysate in 384 well format was then transferred into the corresponding opaque white plate and luminescence was measured at for 0.1 s per well using the Ensight Multimode Plate Reader. For the following Nanoluc reaction in a 96 well format 2 μl cell lysate was transferred into an opaque white plate containing 40 μl PBS, and 20 μl Stopglo buffer, supplemented with substrate, was added to each well. In a 384 well format 20 μl Stopglo buffer containing substrate were added on top of the undiluted cell lysate. The plate was shaken again for 5 min at 480 rpm to quench the firefly luciferase reaction and ensure good mixing. Nanoluc activity was measured for 0.1 s per well, again using Ensight Multimode Plate Reader.
Data obtained by the Nanoluc reaction was normalised to Firefly reaction to account for well-to-well variability of transfection efficiency. Normalised data were used to calculate the fold change to the empty vector control mCMV.

| Molecule | Fold change (Median) [fold] |
| --- | --- |
| CSE054: clustered SOX dimer motif enhancer, SEQ ID NO: 50 (nucleic acid) DNA: GCCAACAACTCATATAGTGGAGGCTTGAGCACACCATGCTTATTCCCAGAGTTCCAATGCTCTGCTTTTGAACCATTACCATGCCTTTCAGCAGCACTGTCAACAGAGCTCAGAGAAGGTCTTGAACTCCAGAGAATGAATGAGATATGCCAAATGAAGCATAATTACTTTATTGACGTCATTCAGCTTTCAACTCACATTTAATGAGAAAGCTTCTACTGCTTGAAACAGTGGGCCATTTGTAGCACATTATGCAAATGATAAGACTAATCTTTTGCATTATACATAAGAGCTGCTTATTGTGCATTAACTAATTTATCTGACTAGGAAGGGGCTATGAATGCTGATTTTTATTAAGCTCTTCATTAAGTGAAAATGTAGGCATGGCAAGTGCATAT | 65.7 |
| CSE075: clustered SOX dimer motif enhancer, SEQ ID NO: 49 (nucleic acid) DNA: ATAAGCCCTTTAAATTAAATCTTTATGCAGATTCTATTTTATACTCCAAACTTTTCATGGAGCCTTGTGTAATTCTGATGTGTAAACCAACAAACAGAGAGGCTCTGTGTATGGAGTAGCTGGTTTGGATACCAGCTGGCTTGGCTGTGCGCCTTTCTAATGGTAATGAAGTCACACAGCTGCTAGGACAATCAGCTGGAGTTCAGATTGTCACTAGCTAAATGGATATCCATTGACTAGCTTCTTATCCGGACTCATTAAAGTTTAGTATTGACAAATAGTGGCTGGAGGTTTACAACTAAGAGGCATGTAGAAATGAACTTGTTGACTATTTTTTCCCTATAGCTTTTGCTTTGTGATTCACAGAATGTCATTCATC | 58.1 |
| CSE014: clustered SOX dimer motif enhancer, SEQ ID NO: 47 (nucleic acid) DNA: GCCTTTTAGCTGATTAACAAATACAGTGAATTTAACTTTGTAGATTCTTAACATTTAAAGACAACAGTCTAAGGCAATTTAAAGTATATTCTGCCAATCAGTTGTTGAGTTAGACCACCCATAGCCTTTTTTTATTCTTCATTGTTTGAATAATATGGGAGGAAATTTAGTGTATACTCTCTTCTTCCTGTATTTTCCAGTTAGATTAAGCTGTTGTCTTCACAATTGCCTCCCAGCTGCTGTGACTTGTGAAAACAACAGACCCTGCTCTGTTGTCTGGAGAAAGCCGGGATTGTTATGAGTAACTTTATTGCAGGCACATGAGTGTGTTAAGACTTTAAAACACGCTCAAATGTCATGTGCACACCCAATGACGGGCAAGAATAATTATGAAAAAACAAGAAATCTATGTCTATGAAACCGTGTTGGACAAAATGGGCCATTCATTGTGTTCCCCTGGGAATGCCTGGACTCTGCAGTCAGAAAACAAAAAAGGCACTTTTTTCCTGCCGTAGGCTGAATGCTTAGCTTTGCCATCTGAGCCCTAAGAAAACATGGGCCCCTCTACTGCTGGCGCACCCACGCACACTAAAAAATATTAATGCCTCTCTCTCCTTACTTTTTTCCAGGCATTCCCTCGTGTAGGCTGTAGCCAATATAATGTCAACACAAA | 27.7 |
| CSE025: clustered SOX dimer motif enhancer, SEQ ID NO: 45 (nucleic acid) DNA: ATGGACAATGGCAGCCTGAAAGAATATGAGGGAGGGTCACCAGTGATGGACATGGTTTGGGGAGAGCCCAAGAATTGAAGGGGACTTGGGATTGTTGACAGACCTTCCACATCTCAGAATGGGGGAAGTGGTTTCTTTTTTCCTCATTCTCCAAGGCTTCTCAGTCTCAGAGACCCCAAGAGATGCCATTAATACAGATTCCTCCTCTGGCTCCTTTGAGACATTTGCTTTTGAAGGACCTGGAAGAGAAAGCTCTTTGTATGTGGCCAGAATAAACTCATTGTACACCCAAACAATTAACTCCTCAATGGACTTGCCAGCCCCTTGAAAGGCCTGGCCCTGCGTCCCTGGACCTCTTGGGCTCTATTCAGTCCCTTAAGCACACCAATGTTTTTGGGTTTTTGTTTTGTTTTGTTTGTTATTCTGAAAAGTCTTTCCCTGAGAATAGTCTGAGCGGATCAACATTGTCCTCAGCCTGGCATTTATCTCTCCTCGCCAGCGAATGTCAATCAGGAATCAAAAAGCCAAACAGAGGAGGCTTTGAACGGTGTCATCGGGGGTCGAAGTGACTTCCAGCTGTCTGTGCGTGGGCCAGGCCTTCTCGCAGGGCAAGGAATTGTGCTGTCACACAAACCCACTGTCTGTATAGGCTCACAGAGCCCA | 21.3 |
| CSE033: clustered SOX dimer motif enhancer, SEQ ID NO: 46 (nucleic acid) DNA: CTGGGGAACAAAACTTAGATCTTGATCATCCAGCATAGCTCTGGCATGCTGAGCGTGTGATACACCTGTCTCTACCGTCAGGCAAACGAGTGGGTTCACAGGCAGAGGCCTGCCCTGCCAAACAATGCTCCCCTTTGTCCCCGCCCAGGGCTCAGGAGCCGCAAGGAAGCCAAATCCATCAGCACTTGTCAGGGCCCTTGATGCACACAATGCAAGTTATGATCCACAGTCCCCGGCAAAGCCCCAGGCTTCCAGCAGGCAGCATTAACTGACACGCAATGTGTCAGTCAGCCTTCTAAAAGCCAGGGGTGGGGATCCGTGCCAGGGGGCCACTGAGCTCTCATTCCCAGAAGCCAACCAGAGCC | 20.9 |
| CSE088: clustered SOX dimer motif enhancer, SEQ ID NO: 44 (nucleic acid) DNA: CTCGATACCCACATTCCTAACCTTTTAATGCCAAGCAGCCTATAAGCATGTCAAATTTTACTCATGTTCCTGCTCTTTCCACTCAAGTTGGCTTTGTGGGTTGCTGGTTTTATCAAAATTGAGTGAGAGTGTGTTCAATACAATGTTGGATTCATTAGGGAGAAAAAAGCCAAATAAAAACCTTGCTTCTTCAATGCCAGGAGCTTACAAAGACATATAAACCATGAGGAATTCCAAGGACTTGCTCAGAAGCCGTTCTGCAAATGCATTTCTTGAACAAAGGGCCAATGTTCCTTTCAGGGAAGAGCGCGGGACTGGTTTCCGGCATTTTTCTTTAAATCATTAGGACCATGCCAGCAAACAAACATATACAGCCCCTGGGAGAAAGAATCTCATTCAACACAGCTTACAAGAGTTTGATTATTAGGGAGGGGTGCTTCATGGCACGTGCCTCACCAGCCGGCCCCCAAATGTACAGATCTGTTTAAAGGGCTTTATTGATGGTGGCCGCAGACAGATAGAGCTTGTGAGGAGAACTGACATCCCATGGATACTAACATATCAGCATCATCCTGACCAGCACACAATCCAGTCAGAGAGAGCTGAAAAGTCTGCCTCATTCCCTTGAAAATGTGCTTCTTAAGACAAATAAAATATAGAAATAAGAAATTCACCTC | 16.5 |
| ID0876: enhancer fragment, SEQ ID NO: 8 (nucleic acid) DNA: GAGCAGGCAGTCATTTGGTTCCCTTCTCTGAATGCATTGGCTCTGATCCACGGCGCCTCAGGAAGTGAAAGGGAGCAGGCAGTGAGGCCAAGCCATGAATGTTGGGCCCTTTTCTTAGAAAACAAAGGGTTCACTTTAGGCTAGGAGGAAACATCCGGGG | 91.1 |
| CSE061: clustered SOX dimer motif enhancer, SEQ ID NO: 48 (nucleic acid) DNA: GAACAGCACTTAAATATTAATAGCATCACTGGGAAAACACGACAGCTATTTCCCTGTTTTCTGCAGCTCAATGAAGAGTTGTTCAGTGCAGACCCCAGTGCTCTTGCCTCATGAATGGACGTGATTGTGGGGACATCATCTCCTACTAAGGCAAAACGTGACACTGAGAACAAAGGCTGGTTTTTAGCCTGATGTGATGAGCTCACCCCAGTGCCCATGTGGGGACTTTGAAGCTCGTCCAGGTGCCAGTTTTCTGTGTATATGACATTCTTGGTTGGGGAGGGTGTGGACTGGGCAGCAGGCTTT | 58.3 |
